Experiments:
Assay in all cases: cell-based or functional assay
[1] = target: sortase-ligated phosphopeptide β2AR reconstituted in HDL particles (HDL-β2ARpp) (human) (UniProt P07550)
[2] = target: phosphopeptide-ligated β2AR with a deletion of the third intracellular loop (β2ARppΔ238-267), in HDL particles (human) (UniProt P07550)
[3] = target: wild-type (WT) β2AR reconstituted in high-density lipoprotein particles (HDL-β2AR), non-phosphorylated (human) (UniProt P07550)
[4] = target: β2AR ligated to a non-phosphorylated version of the V2R peptide, in HDL particles (β2ARnp) (human) (UniProt P07550)

Row | Substance | log IC50 of isoproterenol (ISO), competition radioligand binding, in the presence of βarr1 Δ62-77 (no transducer: -6.30+/-0.05) [1] | fold increase of isoproterenol affinity by the transducer [1] | log IC50 of isoproterenol (ISO), [125I]-CYP competition binding, in the presence of Gs (no transducer: -6.24+/-0.04) [1] | log IC50 of isoproterenol (ISO), competition radioligand binding, in the presence of Gs (no transducer: -6.91+/-0.04) [2] | fold increase of isoproterenol affinity by the transducer [3] | log IC50 of isoproterenol (ISO), [125I]-CYP competition binding, in the presence of Gs (no transducer: -6.82+/-0.03) [3] | log IC50 of isoproterenol (ISO), [125I]-CYP competition binding, in the presence of Gs (no transducer: -6.42+/-0.09) [4] | log IC50 of isoproterenol (ISO), [125I]-CYP competition binding, in the presence of βarr1 (no transducer: -6.24+/-0.04) [1] | log IC50 of isoproterenol (ISO), competition radioligand binding, in the presence of βarr1 (no transducer: -6.30+/-0.05) [1]
1 | finger loop deletion mutant of β-arrestin1 (βarr1 Δ62-77) in βarr1-MC-393 (from UniProt P29066 1-61; P29066 78-393) | -6.48 log |  |  |  |  |  |  |  | 
2 | heterotrimeric Gs protein (short Gαs splice variant, Gβ1-His6, Gγ2) (from UniProt P62873 2-340; P59768 2-68) |  | 800 fold | -9.15 log | -8.85 log | 1000 fold | -8.88 log | -9.02 log |  | 
3 | β-arrestin1, minimal cysteine and truncated variant of rat βarr1 (βarr1-MC-393) (from UniProt P29066 1-393) |  | 9 fold |  |  |  |  |  | -7.14 log | -7.25 log
